Biological target: the molecule itself
Assay: AUC

B1: βB1-crystallin (natural protein, human, UniProt P53674 1-252, looked up)
chain: MSQAAKASASATVAVNPGPDTKGKGAPPAGTSPSPGTTLAPTTVPITSAKAAELPPGNYRLVVFELENFQGRRAEFSGECSNLADRGFDRVRSIIVSAGPWVAFEQSNFRGEMFILEKGEYPRWNTWSSSYRSDRLMSFRPIKMDAQEHKISLFEGANFKGNTIEIQGDDAPSLWVYGFSDRVGSVKVSSGTWVGYQYPGYRGYQYLLEPGDFRHWNEWGAFQPQMQSLRRLRDKQWHLEGSFPVLATEPPK
stoichiometry N: 2

Source: article PMC4182932 (Current protocols in protein science / editorial board, …, 2014)
